# From US20240102068A1, “C-GLYCOSYLTRANSFERASE VARIANTS AND USE THEREOF” (KOREA ADVANCED INSTITUTE OF SCIENCE AND TECHNOLOGY, priority 2021, published 2024)
# Residue numbers refer to the chain shown, from its start. Names may count otherwise.
# B1: V132A (protein, listed as Gentiana triflora)
# chain: MGSLTNNDNLHIFLVCFIGQGVVNPMLRLGKAFASKGLLVTLSAPEIVGTEIRKANNLNDDQPIKVGSGMIRFEFFDDGWESVNGSKPFDVWVYINHLDQTGRQKLPIMLKKHEETGTPVSCLILNPLVPWAADVADSLQIPCATLWVQSCASFSAYYHYHHGLVPFPTESEPEIDVQLPGMPLLKYDEVPDYLHPRTPYPFFGTNILGQFKNLSKNFCILMDTFYELEHEIIDNMCKLCPIKPIGPLFKIPKDPSSNGITGNFMKVDDCKEWLDSRPTSTVVYVSVGSVVYLKQEQVTEMAYGILNSEVSFLWVLRPPSKRIGTEPHVLPEEFWEKAGDRGKVVQWSPQEQVLAHPATVGFLTHCGWNSTQEAISSGVPVITFPQFGDQVTNAKFLVEEFKVGVRLGRGELENRIITRDEVERALREITSGPKAEEVKENALKWKKKAEETVAKGGYSERNLVGFIEEVARKTGTK
# B2: GtCGT V93Q/Y193F/I323S: GtCGT^V93Q/Y193F with additional I323S (Table 10 No. 12) (protein, listed as Gentiana triflora)
# chain: B1 chain with V93Q, A132V, Y193F, I323S
# B3: GtCGT V93Q/Y193F/P385A: GtCGT^V93Q/Y193F with additional P385A (Table 12 No. 15) (protein, listed as Gentiana triflora)
# chain: B1 chain with V93Q, A132V, Y193F, P385A
# B4: Streptomyces peucetius DnrF (aklavinone 12-hydroxylase), wild type, SEQ ID NO: 2 (Streptomyces peucetius) (protein)
# chain: MALTKPDVDVLVVGGGLGGLSTALFLARRGARVLLVERHASTSVLPKAAGQNPRTMELFRFGGVADEILATDDIRGAQGDFTIKVVERVGGRVLHSFAESFEELVGATEQCTPMPWALAPQDRVEPVLVAHAAKHGAEIRFATELTSFQAGDDGVTARLRDLGTGAESTVSARYLVAADGPRSAIRESLGITRHGHGTLAHFMGVIFEADLTAVVPPGSTGWYYLQHPDFTGTFGPTDRPNRHTFYVRYDPERGERPEDYTPQRCTELIRLAVDAPGLVPDILDIQAWDMAAYIADRWREGPVLLVGDAAKVTPPTGGMGGNTAIGDGFDVAWKLAAVLRGEAGERLLDSYGAERSLVSRLVVDESLAIYAQRMAPHLLGSVPEERGTAQVVLGFRYRSTAVAAEDDDPEPTEDPRRPSGRPGFRAPHVWIEQDGTRRSTVELFGDCWVLLAAPEGGAWGQAAARAAADLGVRLDVHLVGRDVAAPSGELTRTYGIGRAGASLVRPDGVVAWRTAVAPGAEAQDQLSTLLTRLLAR
# notes: purification details not in the excerpts
# B5: Streptomyces peucetius DnrF (aklavinone 12-hydroxylase, SEQ ID NO: 2) variant P217K (Streptomyces peucetius; P217K) (protein)
# chain: B4 chain with M1V, P217K
# notes: as for B4
# How the values were obtained:
# FK = experiment: dcII production from FK by C-glycosyltransferase candidates and GtCGT mutants in FK-producing E. coli, flask culture; type: cell-based; details: mutants transformed into FK strains, flask culture
# Protocol: Flask culture was carried out under the following conditions. Colonies were seeded into 10 mL of LB medium supplemented with appropriate concentrations of antibiotics, followed by culture overnight at 37° C. The culture fluid thus prepared was passaged into a 250 mL baffled flask containing 50 mL of R/2 medium supplemented with 3 g/L yeast extract and 20 g/L glucose (with 0.45 g/L ascorbic acid if necessary), followed by culture at 30° C. and 200 rpm. The composition of R/2 medium (pH 6.8) was as follows (per liter): 2 g of (NH4)2HPO4, 6.75 g of KH2PO4, 0.85 g of citric acid, 0.7 g of MgSO4·7H2O, and 5 ml of trace metal solution (TMS) [10 g of FeSO4·7H2O, 2.25 g of ZnSO4·7H2O, 1 g of CuSO4·5H2O, 0.5 g of MnSO4·5H2O, 0.23 g of Na2B4O7·10H2O, 2 g of CaCl2·2H2O, and 0.1 g of (NH4)6Mo7O24 per liter of 5 M HCl]. When OD600 of the culture fluid reached 0.6-0.8, 1 mM isopropyl β-D-1-thiogalactopyranoside (IPTG) was added to induce exogenous gene expression, followed by culture for 48 hours.
# After culture, production analysis was performed under the following conditions. After flask culture, 50 mL of the culture fluid was centrifuged at 4,000 g for 30 minutes, and then the supernatant was desalted and concentrated. Here, Oasis HLB cartridges (Water) were used. The supernatant was concentrated 1-fold for FK, 30-fold for KA, 45-fold for dell, and 200-fold for carminic acid. The concentrated sample was re-dissolved in an appropriate volume of DMSO and impurities were then removed therefrom using a 0.22 μm PTFE filter. The prepared sample was analyzed by MS (LC/MSD VL; Agilent) coupled with HPLC (1100 series; Agilent). An Eclipse XDB-C18 column was used, 0.1% formic acid was used as buffer A, and methanol was used as buffer B. Analysis was performed in an ESI negative mode. For more accurate analysis of carminic acid, LC-MS/MS was performed using an HPLC Triple Quadrupole Mass Spectrometer (LCMS-8050, Shimadzu) (MRM mode).
# Flask culture started by seeding colonies from LB agar plates into test tubes containing 10 mL of LB. As such, an appropriate concentration of antibiotics was added, followed by culture overnight at 37° C. at 220 rpm. 1 mL of the seed culture thus prepared was inoculated into a 250 mL baffled flask containing 50 mL of R/2 medium (supplemented with 3 g/L yeast extract and 20 g/L glucose), followed by culture at 30° C. and 200 rpm. The composition of R/2 medium was as follows (pH 6.8, per 1 L): 2 g of (NH4)2HPO4, 6.75 g of KH2PO4, 0.85 g of citric acid, 0.8 g of MgSO4·7H2O, and 5 ml of trace metal solution (TMS). The composition of TMS was as follows (based on 0.1 M HCl, per 1 L): 10 g of FeSO4·7H2O, 2.25 g of ZnSO4·7H2O, 1 g of CuSO4·5H2O, 0.58 g of MnSO4·5H2O, 0.02 g of Na2B4O7·10H2O, 2 g of CaCl2·2H2O, and 0.1 g of (NH4)6Mo7O24·4H2O. When OD600 of the culture fluid reached 0.6-0.8, 0.5 mM IPTG was added to induce exogenous enzyme expression, followed by culture for 48 hours. In all experiments for producing flavokermesic acid, kermesic acid, dcII, and carminic acid, 0.45 g/L of ascorbic acid was further added.
# The production of carminic acid (CA) from FK was performed by two biosynthesis pathways, both of which require monooxygenase and C-glycosyltransferase. FK may be oxidized into KA or may be C-glycosylated into dcII. […] In order for the enzyme to have activity, however, it must be glycosylated, and since it also has a transmembrane helix and a signal peptide, successful expression in cells such as E. coli is considered difficult.
# For the enzymes selected above, pCDF-DcCGT, pCDF-MiCGT, pCDF-SfCGT, pCDF-EnCGT, pCDF-OsCGT, pCDF-FeCGT, pCDF-GmCGT, pCDF-AvCGT, pCDF-AvCGT, pCDF-ZmCGT, and pCDF-GtCGT were constructed, and all genes except for the iroB gene amplified from genomic DNA of E. coli Nissle using the iroB_gib_F primer and the iroB_gib_R primer were artificially synthesized and inserted into the NdeI site of the pCDFDuet-1 plasmid using Gibson assembly. […]
# aloesone = experiment: Aloesin production from aloesone by GtCGT and variants in E. coli BL21(DE3), flask culture; type: cell-based; details: for aloesin production increase: compared to conventional concentration of 0.3 μg/L (ALS strain with GtCGT^V93Q/Y193F); for aloesin production: variant on pCDF-RpALS-GtCGT plasmid (additional RpALS), with pWAS-anti-pabA, pRSF-RpALS, pBBR1-zwf
# Protocol: Also, in LC-MS/MS for aloesin analysis, MS (Agilent 6550 iFunnel Q-TOF LC/MS System) coupled with ultra HPLC (UHPLC; 1290 Infinity II LC System; Agilent) was used. Here, an Eclipse-plus C18 column was used, and 0.1% formic acid was used as buffer A, and acetonitrile to which 0.1% formic acid was added was used as buffer B.
# Thereafter, in order to test the production of aloesin, the pCDF-GtCGT or pCDF-GtCGT^V93Q/Y193F plasmid was transformed into the BL21(DE3) strain containing pWAS-anti-pabA, pRSF-RpALS, and pBBR1-zwf plasmids, followed by flask culture.
# Similarly to the test for increased production of aloesone, RpALS was additionally introduced to increase aloesin production. To this end, pCDF-RpALS-GtCGT^V93Q/Y193F was constructed instead of introducing pCDF-GtCGT^V93Q/Y193F. Specifically, RpALS was amplified from pCDF-RpALS using pCDFDuet F and pCDFDuet R primers, and inserted into the NcoI and BamHI sites of the pCA plasmid through Gibson assembly. Thereafter, four plasmids, namely pRSF-RpALS, pCDF-RpALS-GtCGT^V93Q/Y193F, pWAS-anti-pabA, and pBBR1-zwf, were transformed into E. coli BL21(DE3), which was named an ALS strain.
# (§1) Mutagenesis for a specific sequence was performed in the same manner as in Example 2. Here, plasmids containing gene mutants were constructed using pCDF-RpALS-GtCGT^V93Q/Y193F as a template and using primer pairs shown in Table 11 below. The plasmids thus constructed were transformed into the BL21 (DE3) strain along with three plasmids, namely pWAS-anti-pabA, pRSF-RpALS, and pBBR1-zwf, followed by flask culture under the same conditions as in Example 3 using the strains thus constructed. The concentration of aloesin produced was measured in an MRM mode of the HPLC Triple Quadrupole Mass Spectrometer (LCMS-8050, Shimadzu) of the KAIST Biocore Center.
# as §1, with “13” for “11”
# enzyme kinetics of DnrF = substrate: Cc1c(C(=O)O)c(O)cc2c1C(=O)c1c(O)cc(O)cc1C2=O; experiment: enzyme kinetics of DnrF; type: biochemical, Streptomyces peucetius; details: other: means ± SD, n = 3
# [1] = substrate: Cc1c(C(=O)O)c(O)cc2c1C(=O)c1c(O)cc(O)cc1C2=O; experiment: enzyme kinetics of DnrF P217K; type: biochemical, Streptomyces peucetius; details: other: means ± SD, n = 3
molecule,measurement,setting,value
B1,KA production compared with wild-type GtCGT,FK,higher KA production than wild-type GtCGT
B2,aloesin production increase,aloesone,≥ 25.8 fold
same,aloesin production,aloesone,7.75 µg/L
B3,aloesin production increase,aloesone,≥ 14.1 fold
same,aloesin production,aloesone,4.23 µg/L
B4,Km,enzyme kinetics of DnrF,56.75 ± 4.68 µM
same,Vmax,enzyme kinetics of DnrF,0.99 µM/min
same,Vmax/Km,enzyme kinetics of DnrF,0.0175 min⁻¹
B5,Km,[1],43.31 ± 2.64 µM
same,Vmax,[1],1.01 µM/min
same,Vmax/Km,[1],0.0234 min⁻¹
